Measurements as given in the nanobody polyreactivity screen of Harvey et al. (2022).

Assay: yeast display, Sf9 membrane polyspecificity reagent, FACS + sequencing; frameworks hold sequencing errors
Outline: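 After 36–48 hours of galactose induction, yeast (Saccharomyces cerevisiae BJ5465) displaying a synthetic nanobody library were stained at 4 °C for 1 hour with 10% biotinylated, detergent-solubilized Sf9 membrane reagent. Streptavidin microbeads enriched the stained cells before FACS sorting into low and high (top ~1%) gates on anti-HA and streptavidin fluorescence. Each clone's polyreactivity label reflects its gate of origin.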

Sequence	polyreactivity (PSR sort gate)
QVQLVESGGGLVQAGGSLRLSCAASGRIFSNNAMGWYRQAPGKERELVAAIDSSGDSTNYADSVKGRFTISRDNAKNTVYLQMNSLKPEDTAVYYCNARQSGRRVWQYLYGYWGQGTQVTVSS	high polyreactivity
QVQLVESGGGLVQAGGSLRLSCAASGRIFYPYVMGWYRQAPGKERELVAAISASGGRTYYADSVKGRFTISRDNAKNTVYLQMNSLKPEDTAVYYCAAQGWRYYRTVVPMDYWGQGTQVTVSS	low polyreactivity
QVQHVESRGGLVQAGGSLRLSCAASGSIFGYYGMGWYRQAPGKERELVATITSGGSTNYADSVKGRFTISRDNAKNTVYLQMNSLKPEDTAVYYCARQYGYQPERYGYWGQGTQVTVSS	low polyreactivity
QVQLVESGGGLVQAGGSLRLSCSASGSTFTYYAMGWYRQAPVKERELVADIDFSGTSTYYADSVKGRFTVSRDNAKNTVYLQMNSLKPEDTAVYYCATDDYNWFDYDYWGQGTHVTVSS	low polyreactivity
QVQLVESGGGLVQAGGSLRLSCAASGFIFSRYVMGWYRQAPGKERELVAAISSSGGRTYYADSVKGRFTISRDNAKNTVYLQMNCLKPEDTAVYYCAAKPLPGGADTTSPRYDYWGQGTQVTVSS	high polyreactivity
QVQHVESGGGLVQAGGRLRLSCAASGSIFGSNAMGWYRQEPGKERELVAVISRRGGSTYYADSVKGRFTISRDNAKNTVYLQMNSLKPEDTAVYYCADRVWYPRYDYWGQGTQVTVSS	high polyreactivity
QVQLVESGGGLVQAGGSLRLSCAASGSTFDYYDMGWYRQSPGKERELVAAISSGGDSTYYADSVKGRFTISRDNAKNTVYLQMNSLKPEDTAVYNCAAAVYYGQSVWYYYWGQGTQVTVSS	high polyreactivity
QVQLVESGGGLVQAGGSLRLSCAASGRIIYKNAMGWYRQAPGKERELVAAITSSGGSTYYADSVKGRFTISRDNAKNTVYLQMYSLKPEDTAVYYCATDWPHWRKVYWFDYWGQGTQVTVSS	low polyreactivity
QVQLVESGGGLVQAGGSLRLSCAASGSIFINYAMGWYRQAPGKERELVAAISKNGGNTYYADSVKGRFTISRDNAKNTVYLQMNSLKPEDTAVYYCNYDYWGQGTQVTVSS	low polyreactivity
QDQLVESGGGLVQAGGSLRLSCAASGRTFGDKALGWYRQAPGKERELVAAISWSGGRTYYADSVKGRFTISRDYGKNTVYLQMNSLKPEDTAVYYCAARNNRYPLYNYWGQGTQVTVSS	low polyreactivity
QVQLVESGGGLVQAGGSLRLSCAASGGTFRYNAMGWYRQAPGKERELVAAITSVGITNYADSVKGRFTISRDNAKNTVYLQMNSLKPEDTAVYYCAKRYYRYGARSWYYPYDYWGQGTQVTVSS	high polyreactivity
QVQLVESGGGLVQAGGSLRLSCAASGLTFYQNDLGWYRQAPGKERELVAAITLSGDITYYADSVKGRFTISRDNAKNTVFLQMNSLKPEDTAVYYCNADLYVDPWTYFGYDYWGQGTQVTVSS	low polyreactivity
QVQLVESGGGLVQAGGSLRLSCAASGRIFPWYAMGWYRQAPGKEREVVAAIRWRGGGTYYADSVKGRFTISRDNAKNTVYLQMNSLKPEDTAVYYCAARRPANGMGYWGQGTQVTVSS	high polyreactivity
QVQLVESGGGLVQAGGSLRLSCAASGRIFCGYAMGWYRQAPGKERELVAAITSGGRTYYADSVKGRFTISRDNAKNTVYLQMNSLKPEDTAVYYCAAVYVPYYWLGRSRGLDYWGQGTQVTVSS	high polyreactivity
QVQLVESGGGLVQAGGSLRLSCAASGSIFHWYAMGWYRQAPGKERELVAAITWSGDTTYYADSVKGRFTISRDNAKNTVYLQMNSLKPEDTAVYYCAVERDDQDYDYWGQGTQVTVSS	low polyreactivity
QVQLVESGGGLVQAGGSLRLSCAASGSTFPRNAMGWYRQAPGKEWELVAAISGRGVRTYYADSVKGRFTISSDNAKNTVNFQMYSLKPEDTAVYYCAASRGKGVGLAYDYWGQGTQVTVSS	high polyreactivity
QVQLVESGGGLVQAGGSLRLSCAASGRTFYYYTRGWYRQAPGKERELVAAISRRGGRTYYADSVKGRFTISRDNAKNTVYLQMNSLKPEDTAVYNCAKETPHCPGLGGYDYWGQGTQVTVSS	high polyreactivity
QVQLVESGGGLVQAGGRLRLSCAASGLTFTYYAMGWYRQAPGKERELVATISWSGGTTYADSVKGRFTISRDNAKNTVYLQMNSLKPEDTAVYYCAADHPLYRRYDYWGQGTQVTVSS	high polyreactivity
QVQLVESGGGLVQAGGSLRLALLPPDLPSTLNDMGLYRQAPGKERELVAAITRGGSTNYADSVKGRFTISRDNAKNTVYLQMNSLKPEDTADYYCAAPYAGWRDGGDYWGQGTQVTVSS	low polyreactivity
QVQLVESGGGLVQAGGSLRLSCAASGIIFFRYAMGWYRQAPGKEREWVAGISGSGGSTYYADSVKGRFTMSRDNAKNTVYLQMNSLKPEDTAVYYCAKRYYRPVPGGYYWGQGTQVTVSS	high polyreactivity
QVQLVESGGGLVQAGGSLRLSCAASGRIFSTNAMGWYRQAPWKERELVASISKSGGSTYYADSVKGRFTISRDNAKNTVYLQMNSLKPEDTAVYYCAASSYSTSYIRGDYWGQGTQVTVSS	low polyreactivity
QVQLVESGRGLVQAGGSLRLSCAASGIIFEYYTMGWSRPAPGKERELVASITYDGDSTYYADSVKGRFTISRDNAKNTVYLQMNSLKPEDTAVYYCAAEYYYVYSSFGHFYWGQGTQVTVSS	low polyreactivity

Sequence	polyreactivity (PSR sort gate)
QVQLVESGGGLVHAGGCLRLSCAASGRNFYYYTMGWSRQEPGKERELVASISRSGDRTYYADSVKGRFTISRDYAKNTVYLQMNSLKPEDTAVYYCNAQKYPRYSRTSGRNYFFWGQGTQVTVSS	high polyreactivity
QVQLVESRGGLVQAGGSLRLSSAASAFIFGSNAMGWYRQAPGKERELVAAISRSGGSTYYADSVKGRFTISRDNAKKTVYLQMNSLKPEDTAVYYCNVDLWPFVYSWWSYDYWGPGTQVTVSS	high polyreactivity
QVQLVESGGGSVQAGGSLRLSCAASGSTFGGNVMGWYRQAPGKERELVAAISGSGGSTYYADSVKGRFTISRDTAKNTVYFQMNSLKPVDTSVYYCNVESSQSSSGFDYWGQGTQVTVSS	low polyreactivity
QVQLVESGGGLVQAGGSLRLSCAASGRISRRNAMGWYRQAPGKEREFVATITSSGGCTYYADSVKGRFTISRDNAKNTVYLQMNSLKPEDTAVYYCAARVRGRYTEDYWGQGTQVTVSS	high polyreactivity
QVQLVESGGGLVQAGGSLRLSCAASGTFYRNAMGWYRQAPGKERELVAAISSGSNTDYADSVKGRFTISRDNAKNTVYLQMNSLKPEDTAVYYCAADSLARRYDYWGQGTQVTVSS	low polyreactivity
QVQLVESGGGLVQAGGSLRLSCAASGRTFEYYAMGWYRQAPGKERELVAAITYSGDSTYYADSVKGRFTISRDNAKNTVYLQMNSLKPEDTAVYYCAADWSSLKDDYWGQGTQVTVSS	low polyreactivity
QDQLVESGGGLVQAGGSLRLSCAASGSILAYNAMGWYRQAPGKERQLVAAIRLSGGSTYYADSVKGRFTISRDNAKNTVYLQMNSLKPEDTAVYYCARRYYRYDTRKYNYWGQGTQVSVSS	high polyreactivity
QVQLVESGRGLVQAGGSLRLSCAASGRIFKAYAMGWYRQAPGKERELVAAISRSGGRTFYADSVKGRFTISRDNAKNTVYLQMNSLKPEDTAVYYCAVDVSPDSEYYYWGQGTQVTVSS	high polyreactivity
QFQLVESGGGLVQSGGSLRLSCAASGSTFGYYTMGWYRPAPGTERELVAAITWSGGSTYYADSVKGRFTISRDNAKNTVYLPMNSLKPEDTAVYYCAADDYWTPFGYWGQGTQVTVSS	low polyreactivity
QVQLVESGGGLVQAGGSLRLSCAASGLMFRHYAMGWYRPAPGKERELVAAIDYSGGSTYYADSVKGRFTISRDNAKNTVYLQMNCLKPEDTAVYYCNRYHRLRVVPSRFVKYDYWGQGTQVTVSS	low polyreactivity
QVQLVESGGGLVQAGGSLRLSCAASGSIFVEYAMGWYRQAPGKERELVAGISSGGITSYADSVKGRFTISRDNAKNTVYLQMNSLKPEDTAVYYCATDPYKWFFSSYYLLQEVEYWGQGTQVTVSS	low polyreactivity
QVHLVESGGGLVQAGGSLRLSCAASGIIFGVYAMGWYRQATGKESELVAAIDGNGSSTYYADSVKGRFTISRDNAKNTVFLQMNSLKPEDTAVYYCAAGYWSYLYYWYDFDYWGQGTQVTVSS	low polyreactivity
QDQLVESGGGLVQAGGSLRLSCAASGSNYKYYPMGWYRTAPGKERELVAAITWGGGSTYYADSVKGRFTISRDNAKNTFYLQLNSLKPEDTAVYYCAASLFPYQYDAYFSHRKAFYYWGQGTQVTVSS	high polyreactivity
QVQLVESGGGLVQAGGSLRLSCAASGGTFDYYAMGWYRQAPGKERELVAAITRGSTNYADSVKGRFTISRDNAKNTVYFQMNSLKPEDTAVYYCAARGRFVTPQPSYDYWGQGTQVTVSS	high polyreactivity
QVQLVESGGGLVQAGGSLRLSCAASGFIFTVYALGWYRQAPVKERELVATITGTGDTNYADSVKGRFTISRDNAKNTVYLQMNSLKPEDTAVYYCAVSPRVPFRKPVLTPYNMYYWGQGTQVTVSS	high polyreactivity
QEQLQESGGGLVQEGGSLRLSCAASGNISPPADMGWYRQAPGKERELVASIGTGGTTNYADSVKGRFTISRDNAINTVYLQMNSLKPDDTAVYYCAAVRYEYNPYDYWGQGTQVTVSS	low polyreactivity
QVQLVESGGGLVQAGGSLRLSCAASGNTFWPYAMGWYRQAPGKERELVAAISWRGSRTYYADSVKGRFTISRDNAKNTVYLQMNSLKPEDTAVYYCAADYKYVGSEYGYWGQGTQVNVSS	low polyreactivity
QVQLVESGGGLVQAGGSLRLSCAASGSIFRGYAMGWYRQAPGKERELVAAISIGGRTYYADSVKGRFTISRDNAKNTVYLQMNSLKPEDTAVYYCAVQKPKTGKGKKDTYGRDGYWGQGTQVTVSS	high polyreactivity
QDQLVESGGGLVQAGGSLRLSCAAYGYTFDDNAMGWFRQAPGKERELVAAINWDGASTYADSVKGRFTISRDNAKNTVYLQMNSLKPEDTAVYYCTASGKDIFNYVYQGYDYCGQGTQVTVSS	low polyreactivity
QVQLVESGGGLVQAGGSLRLSCAASGFTFYIYAMGWYRPAPRNERELLAAITGSGGRTYYADSVKGRFTISRDYAKNTVYLQMNRLKPEETAVYYSNVLLQRVYGTEPSFDYWGQGTQVTVSS	high polyreactivity
QLQLEESGGGLVQAGGTLRISCEASGSTFRPYAMGAYRKAPGQEREMVARITGSGDSTYYADSVKGRFTISRDNAQNTVYLQMNSLKPEDNAVYYCARDFDYSLSGFEYWGQGTQVTVSS	low polyreactivity
